Assay results reported in patent publication US20170268065.

Target: T1, ELK-1 fusion protein (Cell Signaling), P19419
T1 chain: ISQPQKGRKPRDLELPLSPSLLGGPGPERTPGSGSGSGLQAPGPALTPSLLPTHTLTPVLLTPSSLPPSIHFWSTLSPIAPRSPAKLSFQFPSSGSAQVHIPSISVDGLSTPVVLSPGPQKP

B1: V5-tagged ERK1^Y148H (protein)
chain: MAAAAAQGGGGGEPRRTEGVGPGVPGEVEMVKGQPFDVGPRYTQLQYIGEGAYGMVSSAYDHVRKTRVAIKKISPFEHQTYCQRTLREIQILLRFRHENVIGIRDILRASTLEAMRDVYIVQDLMETDLYKLLKSQQLSNDHICYFLHQILRGLKYIHSANVLHRDLKPSNLLINTTCDLKICDFGLARIADPEHDHTGFLTEYVATRWYRAPEIMLNSKGYTKSIDIWSVGCILAEMLSNRPIFPGKHYLDQLNHILGILGSPSQEDLNCIINMKARNYLQSLPSKTKVAWAKLFPKSDSKALDLLDRMLTFNPNKRITVEEALAHPYLEQYYDPTDEPVAEEPFTFAMELDDLPKERLKELIFQETARFQPGVLEAP
- ERK kinase activity (ELK-1 peptide phosphorylation, IP kinase assay after trametinib exposure): diminished residual kinase activity in the setting of trametinib exposure with the common docking domain mutants compared to other alleles
